Data taken from patent publication US20120269817A1 (Bayer, published 2012).
Positions count from the first letter of the chain named. Blank lines part the entries; values can stand above or below the binder they belong to.

Legend:
[1] = biological target: T1, human tissue factor pathway inhibitor (TFPI) (human, UniProt P10646 29-304, limits assumed); experiment: ELISA, Fab lysate on coated human TFPI
T1 construct: Bought protein; also called human TFPI; hTFPI
T1 sequence (looked up): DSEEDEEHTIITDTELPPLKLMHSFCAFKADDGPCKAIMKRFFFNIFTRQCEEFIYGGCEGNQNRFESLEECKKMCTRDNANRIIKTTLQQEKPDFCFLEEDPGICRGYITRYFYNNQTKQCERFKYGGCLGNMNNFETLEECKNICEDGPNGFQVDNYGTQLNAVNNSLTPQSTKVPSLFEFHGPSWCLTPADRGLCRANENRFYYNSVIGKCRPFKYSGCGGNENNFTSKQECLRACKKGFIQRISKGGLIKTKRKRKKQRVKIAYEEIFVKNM
Description: (§1) To select antibody clones that bind to human TFPI, Fab genes of the phage clones from the second and third round of panning were subcloned into a bacterial expression vector and expressed in E. coli strain TG1. The bacterial lysate was added to the wells of the human TFPI-coated Maxisorp plates. After washing, HRP-conjugated goat anti-human Fab was used as a detection antibody and the plates were developed by adding AmplexRed (Invitrogen) with hydrogen peroxide. A signal of at least five-fold higher than the background was considered as positive. The cross reactivity of the anti-human TFPI antibodies to mouse TFPI was determined by a similar mouse TFPI-binding ELISA. The plates were coated with mouse TFPI (R&D System), BSA and lysozyme. The later two antigens were used as negative controls.

BSA = biological target: T2, BSA (bovine, UniProt P02769 25-607); experiment: ELISA
T2 construct: also called bovine serum albumin
Description: as §1

[2] = biological target: T1, human tissue factor pathway inhibitor …; experiment: ELISA, Fab on coated TFPI
Description: as §1
(§2) Purified Fab antibodies were used to determine EC₅₀ of anti-TFPI antibodies to human or mouse TFPI. EC₅₀ was assessed in an ELISA, similarly as described above. The results were analyzed using SoftMax. The binding affinity of anti-TFPI antibodies was determined in a Biacore assay. Briefly, the antigen, either human or mouse TFPI, was immobilized on the CM5-chips using the amine coupling kit (GE HealthCare) according to the instructions of the manufacturer. The amount of immobilized TFPI was adjusted to the mass of the antigen to give approximate 300 RU. The antibody Fabs were analyzed in mobile phase and at least five different concentrations (0.1, 0.4, 1.6, 6.4 and 25 nM) of the purified antibodies were used in the Biacore assay. The kinetics and binding affinity were calculated using Biacore T100 Evaluation software.

[3] = biological target: T1, human tissue factor pathway inhibitor …; experiment: Biacore, TFPI on CM5 chip, Fab in mobile phase
Description: as §2

T2 sequence (P02769 25-607 limits assumed): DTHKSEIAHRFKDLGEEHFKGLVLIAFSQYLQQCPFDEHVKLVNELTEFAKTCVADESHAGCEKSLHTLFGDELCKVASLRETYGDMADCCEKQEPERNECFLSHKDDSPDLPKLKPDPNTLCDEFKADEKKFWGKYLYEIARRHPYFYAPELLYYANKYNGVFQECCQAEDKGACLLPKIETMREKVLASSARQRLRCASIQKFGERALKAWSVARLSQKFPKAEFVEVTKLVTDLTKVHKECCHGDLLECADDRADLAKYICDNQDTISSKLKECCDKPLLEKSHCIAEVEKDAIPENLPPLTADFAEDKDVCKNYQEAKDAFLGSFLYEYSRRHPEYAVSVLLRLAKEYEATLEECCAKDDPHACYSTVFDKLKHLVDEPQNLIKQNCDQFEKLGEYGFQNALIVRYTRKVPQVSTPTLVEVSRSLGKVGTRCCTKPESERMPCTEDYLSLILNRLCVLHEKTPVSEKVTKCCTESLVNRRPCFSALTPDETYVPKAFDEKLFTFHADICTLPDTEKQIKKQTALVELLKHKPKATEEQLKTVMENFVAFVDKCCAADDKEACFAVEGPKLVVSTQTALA

binding result [1]: binds
binding result (BSA): no binding
B1: TP-2A6 Fab (Fab, V domains shown)
VH: QVQLVESGGGLVQPGGSLRLSCAASGFTFSRYAMSWVRQAPGKGLEWVSSIISSSSETYYADSVKGRFTISRDNSKNTLYLQMNSLRAEDTAVYYCARLMGYGHYYPFDYWGQGTLVTVSS
VL: DIELTQPPSVSVAPGQTARISCSGDKIGSKYVYWYQQKPGQAPVLVIYDSNRPSGIPERFSGSNSGNTATLTISGTQAEDEADYYCASYDSIYSYWVFGGGTKLTVLG
notes: Human Fab from HuCal Gold, expressed in E. coli TG1

binding result [1]: binds
binding result (BSA): no binding
B2: TP-2D7 Fab (Fab, V domains shown)
VH: QVQLQQSGPGLVKPSQTLSLTCAISGDSVSSNSAAWGWIRQSPGRGLEWLGLIYYRSKWYNDYAVSVKSRITINPDTSKNQFSLQLNSVTPEDTAVYYCARFGDTNRNGTDVWGQGTLVTVSS
VL: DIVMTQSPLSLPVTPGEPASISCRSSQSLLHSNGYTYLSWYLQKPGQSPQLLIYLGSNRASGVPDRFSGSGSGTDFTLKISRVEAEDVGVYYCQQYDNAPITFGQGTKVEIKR
notes: as for B1

binding result [1]: binds
binding result (BSA): no binding
B3: TP-3C3 Fab (Fab, V domains shown)
VH: B2 VH with L52V, F102A, G103R, D104A, T105K, N106K, R107S, N108G, T110F, V112Y
VL: DIQMTQSPSSLSASVGDRVTITCRASQSINPYLNWYQQKPGKAPKLLIYAASNLQSGVPSRFSGSGSGTDFTLTISSLQPEDFAVYYCQQLDNRSITFGQGTKVEIKR
notes: as for B1

binding result [1]: binds
binding result (BSA): no binding
B4: TP-2G2 Fab (Fab, V domains shown)
VH: QVQLVESGGGLVQPGGSLRLSCAASGFTFSSYAMNWVRQAPGKGLEWVSAILSDGSSTSYADSVKGRFTISRDNSKNTLYLQMNSLRAEDTAVYYCARYPDWGWYTDVWGQGTLVTVSS
VL: DIELTQPPSVSVAPGQTARISCSGDNIRKFYVHWYQQKPGQAPVLVIYGTNKRPSGIPERFSGSNSGNTATLTISGTQAEDEADYYCQSYDSKFNTVFGGGTKLTVLG
notes: as for B1

binding result [1]: binds
binding result (BSA): no binding
B5: TP-2A10 Fab (Fab, V domains shown)
VH: QVQLVESGGGLVQPGGSLRLSCAASGFTFTSYSMNWVRQAPGKGLEWVSAISYTGSNTHYADSVKGRFTISRDNSKNTLYLQMNSLRAEDTAVYYCARAFLGYKESYFDIWGQGTLVTVSS
VL: DIELTQPPSVSVAPGQTARISCSGDKLGKKYVHWYQQKPGQAPVLVIYGDDKRPSGIPERFSGSNSGNTATLTISGTQAEDEADYYCQAWGSISRFVFGGGTKLTVLG
notes: as for B1

binding result [1]: binds
binding result (BSA): no binding
B6: TP-2B8 Fab (Fab, V domains shown)
VH: QVQLVQSGAEVKKPGASVKVSCKASGYTFTGNSMHWVRQAPGQGLEWMGTIFPYDGTTKYAQKFQGRVTMTRDTSISTAYMELSSLRSEDTAVYYCARGVHSYFDYWGQGTLVTVSS
VL: DIELTQPPSVSVAPGQTARISCSGDNLRGYYASWYQQKPGQAPVLVIYEDNNRPSGIPERFSGSNSGNTATLTISGTQAEDEADYYCQSWDSPYVHVFGGGTKLTVLG
notes: as for B1

binding result [1]: binds
binding result (BSA): no binding
B7: TP-2F9 Fab (Fab, V domains shown)
VH: QVQLVESGGGLVQPGGSLRLSCAASGFTFYKYAMHWVRQAPGKGLEWVSGIQYDGSYTYYADSVKGRFTISRDNSKNTLYLQMNSLRAEDTAVYYCARYYCKCVDLWGQGTLVTVSS
VL: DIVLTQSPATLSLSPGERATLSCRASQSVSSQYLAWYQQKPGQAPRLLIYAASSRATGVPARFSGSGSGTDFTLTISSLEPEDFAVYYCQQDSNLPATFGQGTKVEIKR
notes: as for B1

binding result (BSA): no binding
B8: TP-3F1 Fab (Fab, V domains shown)
VH: QVQLVQSGAEVKKPGESLKISCKGSGYSFTDYWIGWVRQMPGKGLEWMGIIQPSDSDTNYSPSFQGQVTISADKSISTAYLQWSSLKASDTAMYYCARFMWWGKYDSGFDVWGQGTLVTVSS
VL: DIELTQPPSVSVAPGQTARISCSGDNIGSYFASWYQQKPGQAPVLVIYDDSNRPSGIPERFSGSNSGNTATLTISGTQAEDEADYYCEGSNVFGGGTKLTVLG
notes: as for B1

binding result [1]: binds
binding result (BSA): no binding
B9: TP-2B9 Fab (Fab, V domains shown)
VH: QVQLQQSGPGLVKPSQTLSLTCAISGDSVSSNSAAWGWIRQSPGRGLEWLGMIYHRSKWYNDYAVSVKSRITINPDTSKNQFSLQLNSVTPEDTAVYYCARYSSIGHMDYWGQGTLVTVSS
VL: DIQMTQSPSSLSASVGDRVTITCRASQSIRSYLAWYQQKPGKAPKLLIYKASNLQSGVPSRFSGSGSGTDFTLTISSLQPEDFAVYYCHQYSDSPVTFGQGTKVEIKR
notes: as for B1

binding result [1]: binds
binding result (BSA): no binding
B10: TP-2E3 Fab (Fab, V domains shown)
VH: B9 VH with H55Y, Y102V, S103N, S104Q, I105Y, G106T, H107S, M108S
VL: DIALTQPASVSGSPGQSITISCTGTSSDIGGYNYVSWYQQHPGKAPKLMIYGVNYRPSGVSNRFSGSKSGNTASLTISGLQAEDEADYYCSSADKFTMSIVFGGGTKLTVLG
notes: as for B1

binding result [1]: binds
binding result (BSA): no binding
B11: TP-2B1 Fab (Fab, V domains shown)
VH: QVQLVESGGGLVQPGGSLRLSCAASGFTFSSYSMSWVRQASGKGLEWVSSIKGSGSNTYYADSVKGRFTISRDNSKNTLYLQMNSLRAEDTAVYYCARNGGLIDVWGQGTLVTVSS
VL: DIELTQPPSVSVAPGQTARISCSGDNLGNKYAHWYQQKPGQAPVLVIYYDNKRPSGIPERFSGSNSGNTATLTISGTQAEDEADYYCQSWTPGSNTMVFGGGTRLTVLG
notes: as for B1

binding result [1]: binds
binding result (BSA): no binding
B12: TP-2B4 Fab (Fab, V domains shown)
VH: QVQLVESGGGLVQPGGSLRLSCAASGFTFSNYSMTWVRQAPGKGLEWVSGISYNGSNTYYADSVKGRFTISRDNSKNTLYLQMNSLRAEDTAVYYCARIYYMNLLAGWGQGTLVTVSS
VL: DIELTQPPSVSVAPGQTARISCSGDALGTYYAYWYQQKPGQAPVLVIYGDMNRPSGIPERFSGSNSGNTATLTISGTQAEDEADYYCQSYDAGVKPAVFGGGTKLTVLG
notes: as for B1

binding result [1]: binds
binding result (BSA): no binding
B13: TP-3A2 Fab (Fab, V domains shown)
VH: QVQLVESGGGLVQPGGSLRLSCAASGFTFSNYYLSWVRQAPGKGLEWVSGISYNGSSTNYADSVKGRFTISRDNSKNTLYLQMNSLRAEDTAVYYCARMWRYSLGADSWGQGTLVTVSS
VL: DIELTQPPSVSVAPGQTARISCSGDNIGSRYAYWYQQKPGQAPVVVIYDDSDRPSGIPERFSGSNSGNTATLTISGTQAEDEADYYCAAYTFYARTVFGGGTKLTVLG
notes: as for B1

binding result [1]: binds
binding result (BSA): no binding
B14: TP-3A3 Fab (Fab, V domains shown)
VH: QVQLVESGGGLVQPGGSLRLSCAASGFTFNNNAISWVRQAPGKGLEWVSAINSSSSSTSYADSVKGRFTISRDNSKNTLYLQMNSLRAEDTAVYYCARGHHRGHSWASFIDYWGQGTLVTVSS
VL: DIELTQPPSVSVAPGQTARISCSGDNIGSKYVHWYQQKPGQAPVVVIYEDSDRPSGIPERFSGSNSGNTATLTISGTQAEDEADYYCQSWDKSEGYVFGGGTKLTVLG
notes: as for B1

EC50 [2]: 0.17 nM
Kd [3]: 7.6 nM
binding result (BSA): no binding
B15: TP-4A9 Fab (Fab, V domains shown)
VH: QVQLVESGGGLVQPGGSLRLSCAASGFTFSSYGMSWVRQAPGKGLEWVSLISGVSSSTYYADSVKGRFTISRDNSKNTLYLQMNSLRAEDTAVYYCARSYLGYFDVWGQGTLVTVSS
VL: DIELTQPPSVSVAPGQTARISCSGDALGKYYASWYQQKPGQAPVLVIYGDNKRPSGIPERFSGSNSGNTATLTISGTQAEDEADYYCQSYTTRSLVFGGGTKLTVLG
notes: as for B1

binding result [1]: binds
binding result (BSA): no binding
B16: TP-2G4 Fab (Fab, V domains shown)
VH: QVQLVESGGGLVQPGGSLRLSCAASGFTFSSYAMTWVRQAPGKGLEWVSNISYSGSNTYYADSVKGRFTISRDNSKNTLYLQMNSLRAEDTAVYYCARVGYYYGFDYWGQGTLVTVSS
VL: DIELTQPPSVSVAPGQTARISCSGDALRKHYVYWYQQKPGQAPVLVIYGDNNRPSGIPERFSGSNSGNTATLTISGTQAEDEADYYCQSYDKPYPILVFGGGTKLTVLG
notes: as for B1

binding result [1]: binds
binding result (BSA): no binding
B17: TP-3B3 Fab (Fab, V domains shown)
VH: B16 VH with A33G, T35H, S54M, Y59N, V99G, G100L, Y101F, Y102P, Y103G, G104Y
VL: DIELTQPASVSVAPGQTARISCSGDNLRSKYAHWYQQKPGQAPVLVIYGDNNRPSGIPERFSGSNSGNTATLTISGTQAEDEADYYCSAYAMGSSPVFGGGTKLTVLG
notes: as for B1
